Consider 2 substances from PMC5559510.

In test [1] the target is TMR labeled SNAP-25a Δ9 (residues 1–197, S187C) (human) (UniProt P60880). Nature of the test: FRET or BRET; two-membrane system, 37°C; Munc18-1/full-length syntaxin-1 on t-liposomes, BDPY-full-length synaptobrevin-2 (S61C) on v-liposomes, TMR-SNAP-25a Δ9 (S187C), 0.5 μM Munc13-1 C1-C2B-MUN, with or without 0.5 μM Syt1 C2AB, 0.2 mM EDTA; two-phase exponential decay. Background: BRET reads energy transfer from a luciferase to a nearby fluorophore.

In test [2] the target is TMR-labeled SNAP-25a (S187C) (human) (UniProt P60880). Description: FRET or BRET; membrane-free, 37°C; 5 μM co-expressed Munc18-1/syntaxin-1 (1–261), 5 μM TMR-SNAP-25a (S187C), 1 μM BDPY-synaptobrevin-2 (29–93, S61C), 30 μM Munc13-1 MUN domain, with or without 2 μM Syt1 C2AB; fitted to a one-phase exponential decay.
The target is the same in test [3]. Nature of the test: FRET or BRET; one-membrane system, 37°C; Munc18-1/full-length syntaxin-1 on t-liposomes, TMR-SNAP-25a (S187C), BDPY-synaptobrevin-2 (29–93, S61C) in solution, 0.5 μM Munc13-1 C1-C2B-MUN, with or without 0.5 μM Syt1 C2AB, 0.2 mM EDTA; two-phase exponential decay.

In test [1], “BDPY-labeled full-length synaptobrevin-2 (residues 1–116, S61C), on v-liposomes (from UniProt P63045 1-116) (natural protein)” came in with a kfast of ternary SNARE complex formation (no Syt1) of 0.0123 s⁻¹, a kfast of ternary SNARE complex formation (with Syt1 C2AB) of 0.0249 s⁻¹, a τfast of ternary SNARE complex formation (no Syt1) of 81.4 s and a τfast of ternary SNARE complex formation (with Syt1 C2AB) of 40.1 s.

With “BDPY-labeled synaptobrevin-2 cytoplasmic domain (residues 29–93, S61C) (from UniProt P63045 29-93) (domain or fragment)”, in test [2], the kfast of ternary SNARE complex formation (no Syt1) came out at 0.0013 s⁻¹, the kfast of ternary SNARE complex formation (with Syt1 C2AB) turned out to be 0.00354 s⁻¹, the τfast of ternary SNARE complex formation (no Syt1) turned out to be 770 s and the τfast of ternary SNARE complex formation (with Syt1 C2AB) was determined as 282 s. In test [3], the kfast of ternary SNARE complex formation (no Syt1) is 0.00135 s⁻¹, the kfast of ternary SNARE complex formation (with Syt1 C2AB) is 0.0152 s⁻¹, the τfast of ternary SNARE complex formation (no Syt1) was 740 s and the τfast of ternary SNARE complex formation (with Syt1 C2AB) was determined as 65.8 s.
